To fix the notation:
T1: NativeRPtag small for immobilization (Thermoanaerobacter tengcongensis, C-terminal Cys (GGC) coupled to SulfoLink agarose resin)
T1 construct: also called immobilized RPtag (small)
T1 peptide: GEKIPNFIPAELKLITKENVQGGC

T2: RPtag(small) Nd2, Cd4 (Thermoanaerobacter tengcongensis)
T2 peptide: RhodamineB-KIPNFIPAELKLITK

T3: RPtag(small) l14a (Thermoanaerobacter tengcongensis, N-terminal rhodamine)
T3 peptide: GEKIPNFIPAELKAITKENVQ

T4: RPtag(small) l14k (Thermoanaerobacter tengcongensis, N-terminal rhodamine)
T4 construct: also called L14K RPtag(small)
T4 peptide: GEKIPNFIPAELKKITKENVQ

T5: native RPtag(small) (Thermoanaerobacter tengcongensis, N-terminal rhodamine)
T5 construct: Synthetic peptide
T5 peptide: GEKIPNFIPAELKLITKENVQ

T6: NativeRPtag(large)_with_Tags_and_Cys (Thermoanaerobacter tengcongensis)
T6 construct: Unlabeled in anisotropy assays; coupled through the engineered N-terminal Cys to SulfoLink agarose or maleimide plates in column, pull-down and ELISA assays
T6 chain: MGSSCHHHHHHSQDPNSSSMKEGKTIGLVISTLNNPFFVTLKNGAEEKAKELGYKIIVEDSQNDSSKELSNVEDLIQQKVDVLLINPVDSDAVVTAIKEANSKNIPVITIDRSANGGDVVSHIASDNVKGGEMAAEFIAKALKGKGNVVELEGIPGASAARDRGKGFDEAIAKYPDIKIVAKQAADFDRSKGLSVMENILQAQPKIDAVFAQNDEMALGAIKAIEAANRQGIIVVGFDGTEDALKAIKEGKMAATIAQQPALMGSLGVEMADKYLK

T7: MaturePDGF-β_NterminalPeptide
T7 construct: an N-terminal G was added and is left out of the numbering; also called PDGF-β peptide
T7 peptide: RhodamineB-GSLGSLTIAEPAMIAE

B1: Nterminally tagged NativeRPtag(small)_tagRFP (other)
chain: MGSSGEKIPNFIPAELKLITKENVQGSENLYFQGGSMVSKGEELIKENMHMKLYMEGTVNNHHFKCTSEGEGKPYEGTQTMRIKVVEGGPLPFAFDILATSFMYGSRTFINHTQGIPDFFKQSFPEGFTWERVTTYEDGGVLTATQDTSLQDGCLIYNVKIRGVNFPSNGPVMQKKTLGWEANTEMLYPADGGLEGRSDMALKLVGGGHLICNFKTTYRSKKPAKNLKMPGVYYVDHRLERIKEADKETYVEQHEVAVARYCDLPSKLGHKLNGSSGHHHHHHHH
notes: Fusion of RPtag(small), TEV site, tagRFP and 8XHis
B2: RPtag(large) f137d (designed binder)
chain: T6 chain with F137D
notes: also called F137D RPtag(large)
B3: m270n (designed binder)
single chain: T6 chain with M270N
notes: also called RPtag(large) M270N
B4: f137e (designed binder)
single chain: T6 chain with F137E
notes: single mutant of RPtag large; also called RPtag(large) F137E
B5: g130v (designed binder)
single chain: T6 chain with G130V
notes: also called RPtag(large) G130V
B6: d126w (designed binder)
single chain: T6 chain with D126W
notes: also called RPtag(large) D126W
B7: h122f (designed binder)
single chain: T6 chain with H122F
notes: also called RPtag(large) H122F
B8: m270r (designed binder)
single chain: T6 chain with M270R
notes: also called RPtag(large) M270R
B9: k129f (designed binder)
single chain: T6 chain with K129F
notes: also called RPtag(large) K129F
B10: m270k (designed binder)
single chain: T6 chain with M270K
notes: also called RPtag(large) M270K
B11: h122l (designed binder)
single chain: T6 chain with H122L
notes: also called RPtag(large) H122L
B12: g130a (designed binder)
single chain: T6 chain with G130A
notes: also called RPtag(large) G130A
B13: k129y (designed binder)
single chain: T6 chain with K129Y
notes: also called RPtag(large) K129Y
B14: k129a (designed binder)
single chain: T6 chain with K129A
notes: also called RPtag(large) K129A
B15: h122w (designed binder)
single chain: T6 chain with H122W
notes: also called RPtag(large) H122W
B16: k129h (designed binder)
single chain: T6 chain with K129H
notes: also called RPtag(large) K129H
B17: f137s (designed binder)
single chain: T6 chain with F137S
notes: also called RPtag(large) F137S
B18: h122a (designed binder)
single chain: T6 chain with H122A
notes: also called RPtag(large) H122A
B19: m270e (designed binder)
single chain: T6 chain with M270E
notes: also called RPtag(large) M270E
B20: f137t (designed binder)
single chain: T6 chain with F137T
notes: also called RPtag(large) F137T
B21: Nterminally_tagged_NativeRPtag(large)_tagRFP (other)
chain: MGSSSQDPNSSSMKEGKTIGLVISTLNNPFFVTLKNGAEEKAKELGYKIIVEDSQNDSSKELSNVEDLIQQKVDVLLINPVDSDAVVTAIKEANSKNIPVITIDRSANGGDVVSHIASDNVKGGEMAAEFIAKALKGKGNVVELEGIPGASAARDRGKGFDEAIAKYPDIKIVAKQAADFDRSKGLSVMENILQAQPKIDAVFAQNDEMALGAIKAIEAANRQGIIVVGFDGTEDALKAIKEGKMAATIAQQPALMGSLGVEMADKYLKGSENLYFQGGSMVSKGEELIKENMHMKLYMEGTVNNHHFKCTSEGEGKPYEGTQTMRIKVVEGGPLPFAFDILATSFMYGSRTFINHTQGIPDFFKQSFPEGFTWERVTTYEDGGVLTATQDTSLQDGCLIYNVKIRGVNFPSNGPVMQKKTLGWEANTEMLYPADGGLEGRSDMALKLVGGGHLICNFKTTYRSKKPAKNLKMPGVYYVDHRLERIKEADKETYVEQHEVAVARYCDLPSKLGHKLNGSSGHHHHHHHH
notes: Fusion of RPtag(large), TEV site, tagRFP and 8XHis
B22: Cterminally_tagged_NativeRPtag(large)_tagRFP (other)
chain: MGSSHHHHHHHHGSMVSKGEELIKENMHMKLYMEGTVNNHHFKCTSEGEGKPYEGTQTMRIKVVEGGPLPFAFDILATSFMYGSRTFINHTQGIPDFFKQSFPEGFTWERVTTYEDGGVLTATQDTSLQDGCLIYNVKIRGVNFPSNGPVMQKKTLGWEANTEMLYPADGGLEGRSDMALKLVGGGHLICNFKTTYRSKKPAKNLKMPGVYYVDHRLERIKEADKETYVEQHEVAVARYCDLPSKLGHKLNGSSGENLYFQGGSSQDPNSSSMKEGKTIGLVISTLNNPFFVTLKNGAEEKAKELGYKIIVEDSQNDSSKELSNVEDLIQQKVDVLLINPVDSDAVVTAIKEANSKNIPVITIDRSANGGDVVSHIASDNVKGGEMAAEFIAKALKGKGNVVELEGIPGASAARDRGKGFDEAIAKYPDIKIVAKQAADFDRSKGLSVMENILQAQPKIDAVFAQNDEMALGAIKAIEAANRQGIIVVGFDGTEDALKAIKEGKMAATIAQQPALMGSLGVEMADKYLK
notes: Fusion of 8XHis, tagRFP, TEV site and RPtag(large)

Changes are numbered by the printed parent chain. Numbers in names are those of the source. No end group written: not given here. *: point of attachment. RhodamineB = CCN(CC)c1ccc2c(-c3ccccc3C(=O)*)c3ccc(=[N+](CC)CC)cc-3oc2c1

The target in one assay is T1, NativeRPtag small for immobilization. Kind of assay: column binding; non-complementary tagRFP fusion applied to immobilized RPtag (small), washed, photographed.
With B1, the binding result is on record as “no binding (tested: 1 µM (25 mL applied))”.

A further assay concerns the target T2, RPtag(small) Nd2, Cd4. Kind of assay: fluorescence anisotropy; 2 nM rhodamine Nd2Cd4, unlabeled RPtag large variant titrated; bar of Ka = 1/Kd, right axis.
Protocol: (§1) After the incubation, fluorescence anisotropy was measured, and the resultant curves were fit with the equation f=y0+(ymax−y0)*(Ptot+x+Kd−sqrt((Ptot+x+Kd)\hat{ }2−4*Ptot*x))/(2*Ptot), where y0 is the baseline anisotropy, ymax is the maximum anisotropy, Ptot is the fixed concentration of labeled peptide used, x is the variable concentration of protein used, and Kd is the measured Kd. […] Buffer was 50 mM Tris pH 8.0, 0.005% Tween20.
With B2, the binding result is on record as “binds”.
Turning to B3, the binding result was “binds”.
On the same count and under the same terms, the same measure for B4: “binds”; for B5: “binds”.
With B6, the binding result is “binds”.
As for B7, the binding result is “binds”.
Same read-out and setting: then B8, with “binds”; and B9, with “binds”.
Turning to B10, the binding result is “binds”.
With B11, the binding result is given as “binds”.
As for B12, the binding result was “binds”.
Regarding B13, the binding result is listed as “binds”.
Turning to B14, the binding result is “binds”.
For B15, the binding result was “binds”.
Take B16: the binding result is given as “binds”.
For the molecule B17, the binding result is “binds”.
For the molecule B18, the binding result is “binds”.
Still for that read-out and setting: then B19, with “binds”; and B20, with “binds”.

The target of another assay is T3, RPtag(small) l14a. Kind of assay: fluorescence anisotropy; 1 nM rhodamine RPtag small peptide, unlabeled RPtag large titrated, 1 h; 50 mM Tris pH 8.0, 0.005% Tween20; bar of Ka = 1/Kd. A general note: In fluorescence polarisation assays a small probe gives low polarisation when free and higher when bound to something large.
Protocol: (§2) Resultant curves were fit with the equation f=y0+(ymax−y0)*(Ptot+x+Kd−sqrt((Ptot+x+Kd)\hat{ }2−4*Ptot*x))/(2*Ptot), where y0 is the baseline anisotropy, ymax is the maximum anisotropy, Ptot is the fixed concentration of labeled peptide used, x is the variable concentration of protein used, and Kd is the measured Kd. […] Buffer was 50 mM Tris pH 8.0, 0.005% tween20.
As for B2, the binding result was “binds”.
As to B4, the binding result is “binds”.

A further assay has as its target T4, RPtag(small) l14k. The description is as above.
Protocol: as §2
As to B2, the binding result is “binds”.
Take B4: the binding result was “binds”.

The next assay addresses T5, native RPtag(small). The description is as above.
Protocol: as §2
In the case of B2, the binding result was “binds”.
On to B4, for which the binding result is given as “binds”.

A further assay deals with T6, NativeRPtag(large)_with_Tags_and_Cys. Kind of assay: column binding; non-complementary tagRFP fusion applied to immobilized RPtag (large), washed, photographed.
Consider B21, for which the binding result was “no binding (tested: 1 µM (25 mL applied))”.
On the same count and under the same terms, the same measure for B22: “no binding (tested: 1 µM (25 mL applied))”.

A further assay has as its target T1, NativeRPtag small for immobilization. Kind of assay: column binding; 25 mL of 1 µM tagRFP fusion applied to immobilized RPtag (small), washed with 10 mL TNE buffer, photographed.
Protocol: (§3) After purification of the tagged proteins, each was applied to its complementary column to evaluate binding. […] Briefly, columns were first equilibrated in 20 mM Tris pH 8.0, 150 mM NaCl, 1 mM EDTA (TNE buffer), then 25 mL of 1 μM tagged protein in TNE buffer was applied to the column at a flow rate of 1 ml/min, then washed with 10 mL of TNE buffer. Columns were cleaned with 10 mL 100 mM Glycine pH 1.5 between uses.
(§4) Briefly, columns were equilibrated in 20 mM Tris pH 8.0, 150 mM NaCl, 1 mM EDTA (TEN buffer), then 25 mL of 1 μM tagged protein in TEN buffer was applied to the column at a flow rate of 1 ml/min. Thereafter, the column was washed with 10 mL of TEN buffer, and the results recorded by photograph (FIG. 8). Columns were cleaned with 10 mL 100 mM Glycine pH 1.5 between uses.
Regarding B21, the binding result is reported as “binds”.
Still for that read-out and setting: the same measure for B22: “binds”.

The next assay addresses T7, MaturePDGF-β_NterminalPeptide. Kind of assay: fluorescence anisotropy; 20 nM rhodamine PDGF-β N-terminal peptide, unlabeled RPtag large variant titrated; bar of Ka = 1/Kd, left axis.
Protocol: as §1
As to B2, the binding result is “binds”.
The same measure, in the same setting: the same measure for B3: “binds”; for B4: “binds”.
On to B5, for which the binding result is “binds”.
Take B6: the binding result is given as “binds”.
Same read-out and setting: the same measure for B7: “binds”; for B8: “binds”; for B9: “binds”.
Turning to B10, the binding result was “binds”.
With B11, the binding result is recorded as “binds”.
For the molecule B12, the binding result was “binds”.
Turning to B13, the binding result is recorded as “binds”.
Still for that read-out and setting: the same measure for B14: “binds”.
As for B15, the binding result is listed as “binds”.
As to B16, the binding result is recorded as “binds”.
Same read-out and setting: then B17, with “binds”; and B18, with “binds”; and B19, with “binds”.
Take B20: the binding result is on record as “binds”.

A further assay concerns the target T6, NativeRPtag(large)_with_Tags_and_Cys. Kind of assay: column binding; 25 mL of 1 µM tagRFP fusion applied to immobilized RPtag (large), washed with 10 mL TNE buffer, photographed.
Protocol: as §3, §4
Consider B1, for which the binding result is “binds”.

Values taken from patent US20200102347A1 (AUCTUS BIOLOGIES, published 2020).
